Tests used:
[1] = molecular target: T1, recombinant human IL-1α (human, UniProt P01583 113-271, limits assumed); assay: Inhibition binding assay; soluble receptor against IL-1α binding to CB23 cells; same procedure
T1 construct: also called Interleukin-1α
T1 sequence (looked up): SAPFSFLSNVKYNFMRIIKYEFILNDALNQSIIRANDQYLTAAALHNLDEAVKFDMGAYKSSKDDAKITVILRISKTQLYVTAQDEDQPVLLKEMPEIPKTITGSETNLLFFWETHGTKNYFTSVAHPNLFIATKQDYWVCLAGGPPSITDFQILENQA

[2] = molecular target: T2, recombinant human IL-1β (human, UniProt P01584 117-269); assay: Inhibition binding assay; soluble receptor (COS-7 supernatant, serially diluted) against 125I-IL-1β binding to CB23 cells; phthalate oil separation
T2 construct: The 17.5 kD size is consistent with the mature form; also called rIL-1β
Protocol: The binding inhibition constant of the soluble human type II IL-1R, expressed and purified as described in Example 2 above, is determined by a inhibition binding assay in which varying concentrations of an IL-1β competitor is incubated with a constant amount of radiolabeled I-IL-1β and CB23 cells (an Epstein Barr virus transformed cord blood B lymphocyte cell line) expressing the type II IL-1R. Binding assays were also performed by a phtahlate oil separation method essentially as describe by Dower et al., *J. Immunol.* 132:751, 1984 and Park et al., *J. Biol. Chem.* 261:4177, 1986. Briefly, COS-7 cells were transfected with the expression vector pDC406 containing a cDNA encoding the soluble human type II IL-1R described above. Supernatants from the COS cells were harvested 3 days after transfection and serially diluted in binding medium (Roswell Park Memorial Institute (RPMI) 1640 medium containing 2% BSA, 20 mM Hepes buffer, and 0.2% sodium azide, pH 7.2) in […] to a volume of 50 μl/well. […] Duplicate 60 μl aliquots of the incubation mixture were then transferred to polyethylene centrifuge tubes containing a phthalate oil mixture comprising 1.5 parts dibutylphthalate, to 1 part bis(s-ethylhexyl)phthalate. […] The radioactivity of the cells was then determined on a gamma counter.

KI (binding inhibition constant, given as an association constant) [1]: 1.4e+08 M⁻¹
KI (binding inhibition constant, given as an association constant) [2]: ~3.5e+09 M⁻¹
B1: soluble human type II IL-1R (amino acids -13-333 of SEQ ID NO:1) (receptor)
chain: FTLQPAAHTGAARSCRFRGRHYKREFRLEGEPVALRCPQVPYWLWASVSPRINLTWHKNDSARTVPGEEETRMWAQDGALWLLPALQEDSGTYVCTTRNASYCDKMSIELRVFENTDAFLPFISYPQILTLSTSGVLVCPDLSEFTRDKTDVKIQWYKDSLLLDKDNEKFLSVRGTTHLLVHDVALEDAGYYRCVLTFAHEGQQYNITRSIELRIKKKKEETIPVIISPLKTISASLGSRLTIPCKVFLGTGTPLTTMLWWTANDTHIESAYPGGRVTEGPRQEYSENNENYIEVPLIFDPVTREDLHMDFKCVVHNTLSFQTLRTTVKEASS
notes: It includes 3 amino acids of the predicted transmembrane region (331-356)

— patent US6521740 (IMMUNEX, dated 2003)
